Source: the DeepSol protein solubility set

Experiment: soluble on expression in E. coli; label from the status in PepcDB or PDB records

Sequence	soluble on expression in E. coli
MFARAPFVRLLSTTSRNLAEAEKKVSKEALMALRKKTGYSYVNCRKALIQFGENDMDSAVKWLKEAAAKEGWAKAAKLGTRVTSNGLVSVVTDNSTAAVVELSCETDFVARSGAFKDLLSNISNSVLAKAKPQSISSGSKLQEFTYDLGDLTDSDGKNMREVLSLSIGKLGENMTVRRVKAFKAPEGTTLFGASHPKDGTDDIPMGRFISLIALNQSSPGSISSQQLAGQICQHIIGMSPESLGEAAESVKTQEGLRSQEGHDPNADPVVVTNIDESETALLRQAFMLNPSQSVHEYLKSHNANILDFVRVELGSE	not soluble
GSKQVITEQIANDLVKEVVNSSVISIVKREFSEANYRKDFIDTMTRELYDAFLHERLYLIYMDSRAELKRNSTLKKKFFEKWQAS	soluble
GATDSATAAPAAAATTQVQKEAADVLQVAVQGANAMRDIQFARLALFHGQPDSAKKLTDDAAALLAADDASWAKFVKTDAKAKMIADRYVIINASIALSEDYVATPEKESAIQSANEKLAKGDQKGAIDTLRLAGIGVIENQYLMPLNQTRKAVAQSQELLKAGKYYEANLVLKGAEEGIVVDSEMLVAGN	soluble
MGSDKIHHHHHHMNDEVSKNISLSDFEPYFKEDYFREDYFYFDNAVNSPETSDRQAGVIWNLLSLGQGSSVLELGCGYGRITNRLAKKGAHVVGLDISPILLKEAETDAAERGVKVEYVLGDMRSLPWRDRFDAAFLWYTTFGYFDDADNERVLREAASSLRKGGRLLIDHPNRIDFLRHKSPVCYVTQRNNDVRIDMFSNDVLSDRSNLERLIVRDGCVRRTHLSFRQYGVSEYVRMLRSAGFETVEAYGQEGEAFTSDSSRLVVVACK	not soluble
MSDICVIIAAYNAEATIAQAVTSALAEAEVAEVVVVDDASSDATAEAALAASDGSGRLIVERQAQNGGPSAARNRAVALSQAPRIAILDADDFFLPGRFARLDPDLDLAADNIVFVTPEHAARLDPTNLPAAPREVEMLDAERFALGNLAQGVHRGELGFLKPVMSRAFLTRHGLRYDERMWLGEDFDLYMRMLLLGARFGLTRAVGYAAVQRGASLSGRHRTADLAALEACCRAHLEMPASPATQEAMRRHLRQVQAKLLLRQFLDRKAEAGLGAALGFALAPPARFLPIAKGVARDKIAALRPPAPPRAERFLLPVLEHHHHHH	not soluble
ELVVTQESALTTSPGETVTLTCRSSSGAVTTSNYATWVQEKPDHLFTGLIGGTNKRAPGVPARFSGSLIGDRAALTITGAQTEDEAIYFCALWNSNHLVFGGGTKLEIKRTVAAPSVFIFPPSDEQLKSGTASVVCLLNNFYPREAKVQWKVDNALQSGNSQESVTEQDSKDSTYSLSSTLTLSKADYEKHKVYACEVTHQGLSSPVTKSFNRGEC	soluble
MNRLDQLGIRINLICNVFDKWIGQQDLNYNLFTVLYTLATEGSRTQKHIGEEWSLPKQTVSGVCKTLAGQGLIEWQEGEQDRRERLLSLTEKGKVHAAPLTENAQEFSDKVFSTFGDKRTTRLFADLDALAEVMEKTISENKK	not soluble
MGSDKIHHHHHHMLETYALKNGAVFISDAHFLPKSPHLIHTLKELLSAKPPQVFFMGDIFHVLVGYLPLDKEQQKIIDLIHALSEISQVFYFEGNHDFSMRFVFNSKVMVFERQNQPVLFQYDNKRFLLAHGDLFITKAYEFYITQLTSTWARFFLTFLNLLSFKTLYPLFKKLIYQKPVRLWELEPKELQSFIEKRLKAYQNYIKDLNIGSIDGIIEGHFHLKSGAKIPLNTPIYCPLPSFYYEQSLFKVSSSVLEPSQNKDA	not soluble
ISDPVELLKRAEKKGVPSSGFMKLFSGSDSYKFEEAADLCVQAATIYRLRKELNLAGDSFLKAADYQKKAGNEDEAGNTYVEAYKCFKSGGNSVNAVDSLENAIQIFTHRGQFRRGANFKFELGEILENDLHDYAKAIDCYELAGEWYAQDQSVALSNKCFIKCADLKALDGQYIEASDIYSKLIKSSMGNRLSQWSLKDYFLKKGLCQLAATDAVAAARTLQEGQSEDPNFADSRESNFLKSLIDAVNEGDSEQLSEHCKEFDNFMRLDKWKITILNKIKESIQQQEDDLL	soluble
MHTDMKSVGTVSMQEAPLLEIAVVGHTNTGKTSLIRTLLRSTSFGRVDDAAGTTRHVERATIFAGSEAVLNLHDTPGIEDVYALQDKLHLIATRNKRSTQSELLEKFVAATPLNDPLEQEAKVIRQVLRSDVLLYVIDVREPVLEKYLIEIEILGKAMKPMIPIFNFTAAHRAELDLWRKKLAAFNIYASLELDTVAFAFEAEKRLYQKIQSLLEVHYTRLQRLIDHRARVWNQLCMSAARRIAGLIITTACYREHTGDERSSAGDTSSAAIRLQDFIRQAEQHCLVDLLKMFNFTDKDIELQKIPVQNGYWQLDLFAPGVLKAYGLDIGSAALKGAAAGAGIDLMTGGLSLGVASMLGALAGTGWSTFRRYGKEIQAKIRGTRWLCVDDSTLQLLYLRQRQLLDKLMNRGHAACHTDQVSQQPERGELPDGWQQIIDMLRQNPAWGRSPGLHTDDTRQYSSIEKRLIDALLKNPAL	not soluble
MSLRVIDGGVTAPKGFKANGYKEGKFGVAIIISEKDAVGAGTFTTNKVVAHPVVLSRELIKNRDKFRAIVANSGNANCFTKDGMEDAKEMQRLVAELFNINEDEVLVASTGVIGRKMDMNIIKDRINKVYNLIKEGNSSINAAKAIMTTDTKPKEIAVEFEVNGKTVRVGGIAKGAGMIAPNMLHATMLCFITTDIEIDKESLTNILQKVVDKTFNNISVDGDTSTNDTVFVLANGLSGVNYEECGEEFENALLYVCRELAKMIVKDGEGATKFMEVVVKGAKTEEDAVKASKAIVNSLLVKTAVFGGDPNWGRIVAAVGYSGADFNPEVVDVILSNYKDEVYLVKDGIPLADEGTEELKKAEEIMKSDEIKIVVDLKMGEFENVCYGCDLSYEYVRINAEYTTEGHHHHHH	soluble
MIMEHEYRLEVRGYELDSFGHVNNAVYLNYLEAARWDLCSKLNLTDYNESNELFIVVIETNIKYIRELKLFDKVLIKTELTYEDDYLIFKHNIYNEVTKRKASVAKSKMVLVSKQRIIYEIPQFIKDKLDICAYGLEHHHHHH	not soluble
MGSSHHHHHHSSGLVPRGSHMASGLVPRGSHMASMPEASFFTDMLQSITDHGRQLLFSGSRNTQAAAKADLETLCEMLLSSRGEASGMALAAEILDRWGALDSEGAQKFFHMLQQKFGPDTARLDQAIEDYRTDKSSTAVIALHQAAEPRRQELLRRLNHAPNGTATLVRMRQQLLASKDRSEAYHALDADFTHLFGSWFNRGFLTLRPIDWTTPAYILEKIIQYEAVHEIAGWEELRRRLAPADRRCFAFFHPRLADEPLVFVEVALTRSVPKAIADVLDEGREQINADEATTAVFYSISNCQDGLRGISFGNFLIKQVVEDLRKDLPGLKNFVTLSPVPGFARWLAKMRTATGDRSLSEAALKTLSLLDDPNWPGSESSAADVERVLLPLAARYFLTERTPEGRPVDPVARFHLGNGARLERVNFLGDRSPKALQQAHGLMVNYLYKLDDIVANHEALAQRGEVIASPAVKSLLNQNDEGRRSGNGQQGSRAFAQLMNSTLGGGRK	soluble
GPHMADLLLNSTQFVQAFTYLIQNDKEFANKLHKAYLNGCSNLLLD	soluble
MGREFLDLFEQWAESYDRSVEGYDEQYRDVFAGYDRILSTVADKAGQVVLEFGVGTGNLTKKLLERGKRVYGIEPSAPMRKKAAEKLNGRAVILEGDFLQFPTPPEPIDTIASTYAFHHLTDAEKDEALAKYSQLLHPGGKIVFADTAFRDKEAFRQAIEEARARGFHDLADDLEREYYTTLDVLASLFSKHGFSASFAQQNAFVWVMEAVKQTT	not soluble
LPSPSRQASTRRMSIGESIDGKINDWEEPRLDIEGFVVDYFTHRIRQNGMEWFGAPGLPSGVQPEHEMMRVMGTIFEKKHAENFETFSEQLLAVPRISFSLYQDVVRTVGNAQTDQSPMSYGRLIGLISFGGFVAAKMMESVELQGQVRNLFVYTSLFIKTRIRNNWKEHNRSWDDFMTLGKQMKEDYERAEAEKVGRRKQNRR	soluble
QMAGIYQALANDGQRIEPRIIEKVVDSSGNEVEQQPPAETRVVSAQTARTVVDMFRGVVQKDPTGINSGTGAGAAVDGYQVSGKTGTAQQVDPNTGAYSNSNYWITFAGIAPADNPRFVVALMLDKPHRGVHGEGGQSAAPLFHDIASWILDRDNVPLSPPMEGQLVLQAQ	not soluble
MGSDKIHHHHHHMSDARGAFHSKGRWSRMALPAILCAGLLVGCGAEPPAEEHVRVLAQTVKMAEFASATSITGDIQARVQADQSFRVGGKIVERLVDVGDHVAAGQVLARLDPQDQRSNVENAQAAVAAQQAQSKLADLNYQRQKALLPKGYTSQSEYDQALASVRSAQSSLKAAQAQLANARDLLSYTELRASDAGVITARQAEVGQVVQATVPIFTLARDGERDAVFNVYESLFSHDVDGQRITVSLLGKPEVTASGKVREITPTVDERSGTLKVKVGLDSVPAEMSLGSVVNASVAAPAEHSVVLPWSALSKVGEQPAVWLLDQQGKARLQPVRVARYASEKVVIDGGLEAGQTVVTVGGQLLHPGQVVEVAQPPQPTQSTASRDAVGGGQP	not soluble
MSEGSGDQSQQRPWASPRQQPIKGIVQPRVLPPFGKPTRHTNKLDYIMTTVLKEAGKHKHVWPFQKPVDAVALCIPLYHERVARPMDLKTIENRLKSTYYTCAQECIDDIETVFQNCYTFNGKEDDVTIMAQNVHEVIKKSLEQAPREEHDMDVYWGKNKKKPAKSDGGSKSSSSKKNDARGPSEAPSEAGSEVSSVTTASAAAPTVSESASVAAKPERKVAGKKTGKRKAESEDDEKPEPLRAKREVAVVKKEVHQPLLPSMKPCLKLLNDFSTKKYQEFAWPFNEPVDAEQLGLHDYHKIIKEPMDLKSMKAKMESGAYKEPSDFEHDVRLMLRNCFLYNPVGDPVHSFGLRFQEVFDRRWAELGDSSSRASSVAPQSAPIAPTPKVAKSSAPKEPKESRKEHKKETTFEASGAKSEDLMQINNALSMIREREEKLKAELAAAQAIKDKLTSVKNRREDNPNEPFPEKLINETRALCTTQVGQNASSSSASSAALRNGRSKKAASARLYGYEFDSDDEDNKMALTYEEKRNLSNLINNLPNNQLNTIISIIQRRERSALMQQQLDDSEVELDFESLGDMCLREMGAFIKTIPTLNGNGDDEKPKTSSNPTSSGATGSKGSSSLESKNGKKKKNFNMSESSDDETSNSRKRRKRESSESQSSSSSDDDSDDEDRPSIPRKSGQPPSTSREWNQSSAPPPRMGGMGGQPPMSRVPASSSTSVSAIGKNNAAASSNSYRYRCFFVRKLNLKISNKKKWKSKKNSTNLVFRSSKTCTSTSTNIIKTSGSTETTVKTKENGRNQQRRLRLDHQRKANPGMVKTSRPGFRGCGWRQSEPAKKKTKAVSRCQTKWK	not soluble
MFSIQIPALHGKYLREVLESIREQTFQDYEVVVVNSGGGVISDIVHEYGFKEVRKDVKLLEARYLANKESRGDYAFLLDETRPLRKDALEILSKNLHDMVIIGERELGDSFWSRAAQLDKENIMECNSPEAVRGFALPRLFKRELLTASLEKLRENLREKFSQVVFPDHELIYYEASGFSNDIFVIKDELVYHYGDFTLKEIVRKYYRYGKSLKVLKDTPYSFMTSVSRKRREICVGGIKGRLTLYILYLARGIPFLFGKFSLLEHHHHHH	soluble
MRGLRKEALEELMKLLNMKDFPYRIEGIDISHLQGKYTVASLVVFEDGFPKKGDYRRYKIEQDHPDDYESIRTVVKRRYSKHPLPNLLFVDGGIGQVNAAIEALKEIGKDCPVVGLAKKEETVVFENREIHLPHDHPVLRLLVQIRDETHRFAVSYHRKRREKESLRSVLDNVPGIGPIRKKKLIEHFGSLENIRSASLEEIARVIGSTEIARRVLDILG	soluble
